± gives the half width of the 95% confidence interval.
What was measured:
[1] = folding stability dG unfold (combined trypsin and chymotrypsin); higher = more stable
How it was run: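 Sequencing followed digestion of designed mini-proteins with trypsin and chymotrypsin, each at 11 concentrations in threefold dilutions together with a no-protease condition. The mini-proteins were under 80 residues, had no cysteine, sat in a PA-tagged cDNA display construct, and were kept only if AlphaFold2 dimer inter-PAE was above 15. From the counts, Bayesian fitting gave K50, and unfolding free energy was derived against a sequence-predicted unfolded-state K50 and a shared folded-state K50, per protease or combined.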

[2] = folding stability dG unfold from trypsin proteolysis; higher = more stable
Method: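 Folding stability of de novo designed mini-proteins (<80 aa, no Cys; designed by TrROS, TrMRF, ProteinMPNN and the joint model) was measured by cDNA display proteolysis with trypsin and chymotrypsin. Each protease was used at 11 concentrations in a threefold dilution series plus a no-protease condition. K50 was inferred by Bayesian fitting of sequencing counts, and dG unfold was derived against a sequence-predicted unfolded-state K50 (Tsuboyama et al. method). Sequences shown include variable-length N-terminal GS-type padding (SAGGSAGG...) inside a display construct carrying a PA tag. Rows were kept only if the AF2 dimer inter-PAE was >15, to exclude likely homo-oligomers.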

Row | Sequence | folding stability dG unfold [1] [kcal/mol] | folding stability dG unfold [2] [kcal/mol]
1 | SAGGSAGGKIRILEEEEDPANGERRLMVMVHNPKGKPHQYPVPLDDADEILEHLPPGMPVEIYPSAGGSAGG [r6_113_TrROS] | -0.514 ± 0.97 | 0.362 ± 0.097
2 | SAGGSAGGKKKFKVEKITEIKVEKLENGEEVIVKIRLKNGEEIEIPAKDIKLEDLPEGAEIEVISAGGSAGG [r6_609_TrROS_Hall] | < -1 | 0.123 ± 0.34
3 | SAGGSAGGMNKIKVTTSVTTFEETVLAGNKTFTVTLLKKTTTITDPNSSKVTTITETKSPEELSSAGGSAGG [r6_752_JUSTAS] | -0.135 ± 0.27 | 0.294 ± 0.27
4 | SAGGSAGGMVTFDTPEELEALIEELLARHPRDVPVDVTIESEDSRYTIKVAPERVEEISESEGSSAGGSAGG [r6_289_JUSTAS] | < -1 | -0.763 ± 0.47
5 | SAGGSAGGMVTVELPGLPTPEEARARAEEVVAAIVAAGHPGEEVTLTVVYPGSGAAETFTVPLASAGGSAGG [r6_238_JUSTAS] | -0.328 ± 0.22 | 0.225 ± 0.059
6 | SAGGSAGGSAGDEKVPFFVRIIDPKNGKPVREFPVEVDPGKIKIPKELAENMPPDNVEIYSAGGSAGGSAGG [r11_725_TrROS] | < -1 | -0.824 ± 0.4
7 | SAGGSAGGSAGEEIIRAAKEAAKAGKKVRIVVPKGMSAEEIAKKLAEELNIEKVEVYELPSAGGSAGGSAGG [r11_524_TrROS_Hall] | -0.142 ± 0.11 | 0.332 ± 0.086
8 | SAGGSAGGSAGGALVVEVEVEGERRTLVVPVPDEIPPGAEEVAKKLGLKDAKVKIAPLDLSAGGSAGGSAGG [r11_219_TrMRF] | < -1 | -0.662 ± 0.53
9 | SAGGSAGGSAGGGAMSPEPLGFKKVETKVEVVGGSPVIVVKLETPEGELELELPPDAKLSAGGSAGGSAGGS [r10_968_JUSTAS] | < -1 | -0.308 ± 0.12
10 | SAGGSAGGSAGGGLYNVVVTGKGEERVLPAKSPDDVKEALEEAGLEIKSIHPETGIVEAGSAGGSAGGSAGG [r7_726_TrMRF] | < -1 | -0.471 ± 0.18
11 | SAGGSAGGSAGGIEELAKKYPNIKIVEVKTVKVTETNKDGKKTEKTKTEIKIYKDGEEISAGGSAGGSAGGS [r10_0_TrROS_Hall] | < -1 | -0.0124 ± 0.2
12 | SAGGSAGGSAGGKIKVVFELPDAPLFLVAEADSPEELLERAVKLEEELGVPLKVVKVEGSAGGSAGGSAGGS [r10_1087_TrMRF] | < -1 | -0.509 ± 0.23
13 | SAGGSAGGSAGGKNMQEVPFPIEIKDPKNGKKIKIPVEVRRNPDDGKYQITPEALEELIKSAGGSAGGSAGG [r7_557_TrROS] | < -1 | -0.809 ± 0.31
14 | SAGGSAGGSAGGMEGFTAVTFTTTTSSNGTRTTTVTTTTPDGTVTTTTTTTPVTPPPNTASAGGSAGGSAGG [r11_998_JUSTAS] | 0.155 ± 0.14 | 0.503 ± 0.07
15 | SAGGSAGGSAGGMITIEEDPNKDLKTVTVYVPEKPKWVTVDVKPSETIEEALAKAEELLKSAGGSAGGSAGG [r7_138_JUSTAS] | -0.514 ± 0.18 | 0.0308 ± 0.064
16 | SAGGSAGGSAGGMKIVLKVPENNPEAEKEAKKLKEEPGLKEVEVEFIPKSLVPEEPVLLSAGGSAGGSAGGS [r10_1110_JUSTAS] | < -1 | -0.334 ± 0.28
17 | SAGGSAGGSAGGMLVLIKTPKKPVLLSEEEVKSNPELLEKLKEEGFPIDGIEFLDKEKLSAGGSAGGSAGGS [r10_396_JUSTAS] | -0.451 ± 0.31 | -0.185 ± 0.1
18 | SAGGSAGGSAGGMNTNPKFVSEEDDKEIYREYNPSTGKETYIIYYPKPNTKKIVPPELISAGGSAGGSAGGS [r10_172_JUSTAS] | < -1 | -0.634 ± 0.23
19 | SAGGSAGGSAGGMPELTVETEGFPDGSYRVVVTNPGTGELVAVAERPSSTSVADFAKELASAGGSAGGSAGG [r7_633_TrMRF] | < -1 | -0.688 ± 0.13
20 | SAGGSAGGSAGGMPLNFSTVETEELPELGATVTTSTAPGYILTETRTPEGVEVQRYPALLSAGGSAGGSAGG [r7_280_JUSTAS] | 0.108 ± 0.2 | 0.86 ± 0.068
21 | SAGGSAGGSAGGMPVTVEVKEEELPGGEKVITVTVTYPDPVVETLEVKKLPPVDPNNKPSAGGSAGGSAGGS [r10_684_JUSTAS] | -0.103 ± 0.3 | 0.294 ± 0.1

Row | Sequence | folding stability dG unfold [1] [kcal/mol] | folding stability dG unfold [2] [kcal/mol]
22 | SAGGSAGGSAGGMTIKEIMKRFPGGGEIDITEIPGDRITIEMRFPNGNNRRRTIPPDEISAGGSAGGSAGGS [r10_612_TrROS] | -0.582 ± 0.33 | -0.04 ± 0.34
23 | SAGGSAGGSAGGMVRFPDGKEVETESEEELEELLKGVPVEEITIEDPEEKGEKKIPVKLSAGGSAGGSAGGS [r10_1191_JUSTAS] | -0.942 ± 0.48 | 0.137 ± 0.044
24 | SAGGSAGGSAGGNEDDNVPIGEKTVVKKVPPSSPVTITETIYRRPSTGTTSTTEKVIIESAGGSAGGSAGGS [r10_6_JUSTAS] | < -1 | -1.12 ± 0.42
25 | SAGGSAGGSAGGNKEVEIPIMIYWPDPNGKPNMHTVEIDMPNNDLPDIKDWAEDNPWTIMSAGGSAGGSAGG [r7_539_TrROS] | -0.532 ± 0.22 | 0.287 ± 0.05
26 | SAGGSAGGSAGGPSAVSSSSSSRTTTVPGTGTPLRVSSTTTTLDAATGASTTTTTTSPGASAGGSAGGSAGG [r11_1029_JUSTAS] | < -1 | -0.553 ± 0.13
27 | SAGGSAGGSAGGSAVERIIKEMREKFPPGKEVEIPIEVRTDNGNYVPIEIEFRIPPDQPSAGGSAGGSAGGS [r10_11_TrROS] | < -1 | -0.557 ± 0.4
28 | SAGGSAGGSAGGSGPEPKFTVEVDPEKDEVTFLVELEDKPLLLVVKDWPEDDPLLKNAFSAGGSAGGSAGGS [r4_328_TrMRF] | 0.0825 ± 0.29 | 0.388 ± 0.097
29 | SAGGSAGGSAGGSGSSIPIVVEEKPEVSEDPSRVVLTTKIILKDPNGNSIETITEVELKSAGGSAGGSAGGS [r4_75_JUSTAS] | < -1 | -0.492 ± 0.066
30 | SAGGSAGGSAGGSKKTLPFPSVEDVVKYLKDLGLKDVKVDLPPGDLTINLDEIEEALKESAGGSAGGSAGGS [r4_101_TrMRF] | < -1 | -0.957 ± 0.57
31 | SAGGSAGGSAGGSMPVEILEVEEADPETGIRTYKLRDPVIGVESTIEGPLSPEEIEALLSAGGSAGGSAGGS [r4_228_JUSTAS] | < -1 | -0.808 ± 0.55
32 | SAGGSAGGSAGGSMPYVVVVKYPDGSTVTFPPGEDINVKVSPDKKGVEVVSVVPLSELLSAGGSAGGSAGGS [r4_122_JUSTAS] | -0.332 ± 0.2 | 0.179 ± 0.054
33 | SAGGSAGGSAGGSMYVIVTVPPGERLTFPLNPEIDVPEEEIKEKLKKELPVESIEILLPSAGGSAGGSAGGS [r4_116_JUSTAS] | -0.813 ± 0.99 | -0.362 ± 0.19
34 | SAGGSAGGSAGGSPLIVEFKGDELRNTIPSGFEVLSEERDPELGYVRAALRALGSGETLSAGGSAGGSAGGS [r4_435_TrMRF] | < -1 | -0.707 ± 0.27
35 | SAGGSAGGSAGGTEEEALEKAERLAKELGVDLKDVKILNPPDKFEAVFTIPGTGENIKLSAGGSAGGSAGGS [r10_161_JUSTAS] | -0.601 ± 0.97 | -0.505 ± 0.46
36 | SAGGSAGGSAGGTIRDAVKEGKPFKIRMRGKKGKTHTVTIRPDKPVKLPGISSIQVERDSAGGSAGGSAGGS [r10_700_TrROS] | -0.707 ± 0.8 | -0.285 ± 0.27
37 | SAGGSAGGSAGGTPFKAKDPKTDKVYLGEKDPVSGKVTITDPNTGNPIIVPGGEIEFIVSAGGSAGGSAGGS [r10_28_JUSTAS] | -0.282 ± 0.16 | 0.00952 ± 0.041
38 | SAGGSAGGSAGGVVKFPDDVLIERVETLPDGTVKIKVYKRIPGKGSPVEEIEFEDPGSSSAGGSAGGSAGGS [r10_934_JUSTAS] | < -1 | 0.235 ± 0.024
39 | SAGGSAGGSAGGWKTISVNELQDILREEGKPMTADDLIEDPNIKVEENPGNGMPTIEIPPSAGGSAGGSAGG [r7_180_TrROS] | -0.77 ± 0.79 | -0.891 ± 0.24
40 | SAGGSAGGSAGGYFIRYPGNGREIMIPPDDIEDFLDTLPPGFPPENVKIYPFDPNGKPISAGGSAGGSAGGS [r10_13_TrROS] | < -1 | -0.242 ± 0.2
41 | SAGGSAGGSAGKITIHMDPEGNYMVKTPGNERQFDSPEDADELADEFLLNGLPIEIHPHPSAGGSAGGSAGG [r17_35_TrROS] | < -1 | -0.753 ± 0.36
42 | SAGGSAGGSAGKKVVTIDIPIDNPEELEVAEEIAREAAKELGVPPEEIPVTWEGNYLRIESAGGSAGGSAGG [r11_218_TrMRF] | < -1 | -0.423 ± 0.075
